Values quoted from earlier work, collected in publication PMC11155677.

Target: Lys115 (UniProt position 115, LSAYPKKLGYP)

Acetoacetate decarboxylase (AADase) (not stated (Clostridium acetobutylicum inferred))
pKa: 6
